Data set [1] deals with T1, TFBg (Halobacterium sp. NRC-1, UniProt Q9HSF7 1-323).
T1 sequence: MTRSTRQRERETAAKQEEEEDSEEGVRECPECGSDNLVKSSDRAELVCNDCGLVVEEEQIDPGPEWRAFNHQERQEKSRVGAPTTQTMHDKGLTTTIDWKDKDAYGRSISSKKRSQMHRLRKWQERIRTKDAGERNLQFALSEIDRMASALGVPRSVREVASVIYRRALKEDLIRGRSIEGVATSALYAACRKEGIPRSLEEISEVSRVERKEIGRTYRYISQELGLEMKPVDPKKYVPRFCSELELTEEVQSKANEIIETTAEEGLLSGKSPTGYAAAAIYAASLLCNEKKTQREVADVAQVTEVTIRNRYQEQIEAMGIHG
As to the kind of experiment: EMSA.

Data set [2] deals with T2, TFBb (Halobacterium sp. NRC-1, UniProt Q9HRE6 1-325).
T2 sequence: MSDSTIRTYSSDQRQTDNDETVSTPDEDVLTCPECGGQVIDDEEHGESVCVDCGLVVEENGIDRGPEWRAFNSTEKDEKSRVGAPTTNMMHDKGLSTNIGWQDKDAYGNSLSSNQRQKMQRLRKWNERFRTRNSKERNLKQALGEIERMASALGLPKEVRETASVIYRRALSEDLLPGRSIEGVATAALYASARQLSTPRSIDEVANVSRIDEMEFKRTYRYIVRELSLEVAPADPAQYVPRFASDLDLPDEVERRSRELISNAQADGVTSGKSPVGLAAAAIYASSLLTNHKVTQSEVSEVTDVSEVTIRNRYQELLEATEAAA
Put plainly: EMSA. A general note: Mobility shift assays separate free from complexed probe on a gel.

B1: FM (BRE/TATA of Phsp5 replaced by Pbop) (dsDNA)
DNA 1: GCGGGATCCTCGTAGAGTTACACGAAATGCGGACATAGTTTTGGCTGGAGTCAAGGCATATGAGT
DNA 2: ACTCATATGCCTTGACTCCAGCCAAAACTATGTCCGCATTTCGTGTAACTCTACGAGGATCCCGC
B1: the binding result in data set [1] and in data set [2] was “no binding” in each case.

(Values after PMC2396416.)
